The values that follow are results of earlier work, collected in article PMC9987997.

For series [1], the target named is Scribble PDZ4 (Homo sapiens) (UniProt Q14160). Description: ITC. In general terms: ITC needs no label: the signal is the heat of the interaction.
For series [2], the target named is Scribble PDZ1 (Homo sapiens) (UniProt Q14160). Description: ITC.

The Kd is a measure of binding affinity in units of concentration. “NS1 (ESEV PBM) PBM (from UniProt Q8QPI8)”: the values for the dissociation constant (Kd) in series [1] and in series [2] were 12.2 µM and 21.4 µM, respectively.
